{
  "source": "patent US20250002945",
  "about": "“NEW TALE PROTEIN SCAFFOLDS WITH IMPROVED ON-TARGET/OFF-TARGET ACTIVITY RATIOS” (CELLECTIS SA, published 2025)",
  "experiment_in_all_cases": "cell_activity; T cells, mostly above 70%",
  "conditions_in_all_cases": "tags: SV40 NLS; FokI fusion",
  "key": {"CISH (1) left V2 TALEN": {"target": "T1, CISH (1) left V2 TALEN (synthetic, UniProt Q56830 SEQ:15-719)", "T1 chain": "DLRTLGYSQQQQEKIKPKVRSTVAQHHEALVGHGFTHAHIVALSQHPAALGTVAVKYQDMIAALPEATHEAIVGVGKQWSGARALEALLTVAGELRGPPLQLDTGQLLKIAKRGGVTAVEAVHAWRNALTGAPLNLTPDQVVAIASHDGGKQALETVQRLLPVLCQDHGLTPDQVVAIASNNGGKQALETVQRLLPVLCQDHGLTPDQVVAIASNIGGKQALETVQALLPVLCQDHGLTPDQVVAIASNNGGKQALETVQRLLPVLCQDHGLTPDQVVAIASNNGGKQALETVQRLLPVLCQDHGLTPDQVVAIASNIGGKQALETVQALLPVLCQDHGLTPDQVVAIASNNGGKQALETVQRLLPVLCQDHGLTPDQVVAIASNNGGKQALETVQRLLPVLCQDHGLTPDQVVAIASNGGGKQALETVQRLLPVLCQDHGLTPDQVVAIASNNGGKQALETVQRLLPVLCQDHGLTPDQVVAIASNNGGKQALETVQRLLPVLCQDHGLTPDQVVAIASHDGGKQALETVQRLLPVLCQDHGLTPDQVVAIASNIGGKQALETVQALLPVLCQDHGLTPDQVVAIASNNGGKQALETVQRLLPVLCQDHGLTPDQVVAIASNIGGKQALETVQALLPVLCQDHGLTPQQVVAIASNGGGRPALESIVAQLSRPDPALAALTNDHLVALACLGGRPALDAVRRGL"}, "CISH (1) right V2 TALEN": {"target": "T2, CISH (1) right V2 TALEN (synthetic, UniProt Q56830 SEQ:15-719)", "T2 chain": "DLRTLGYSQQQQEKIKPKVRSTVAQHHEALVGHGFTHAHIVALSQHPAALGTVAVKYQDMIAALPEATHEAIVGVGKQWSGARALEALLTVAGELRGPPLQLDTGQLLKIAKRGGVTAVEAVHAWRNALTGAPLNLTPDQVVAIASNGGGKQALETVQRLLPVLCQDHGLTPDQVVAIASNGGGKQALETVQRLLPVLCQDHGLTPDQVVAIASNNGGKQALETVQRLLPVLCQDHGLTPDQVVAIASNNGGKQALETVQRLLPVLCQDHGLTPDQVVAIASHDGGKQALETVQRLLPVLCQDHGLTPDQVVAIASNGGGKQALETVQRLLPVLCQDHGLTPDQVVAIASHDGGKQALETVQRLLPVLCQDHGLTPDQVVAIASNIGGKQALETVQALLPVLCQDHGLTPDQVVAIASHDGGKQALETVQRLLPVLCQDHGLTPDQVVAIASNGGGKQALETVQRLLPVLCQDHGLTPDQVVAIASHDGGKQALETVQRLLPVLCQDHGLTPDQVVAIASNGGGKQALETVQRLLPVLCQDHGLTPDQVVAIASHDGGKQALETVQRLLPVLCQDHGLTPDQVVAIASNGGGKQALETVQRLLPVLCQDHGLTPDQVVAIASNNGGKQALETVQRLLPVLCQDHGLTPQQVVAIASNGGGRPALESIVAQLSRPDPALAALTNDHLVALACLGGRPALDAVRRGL"}, "CISH (3) left V2 TALEN": {"target": "T3, CISH (3) left V2 TALEN (synthetic, UniProt Q56830 SEQ:15-719)", "T3 chain": "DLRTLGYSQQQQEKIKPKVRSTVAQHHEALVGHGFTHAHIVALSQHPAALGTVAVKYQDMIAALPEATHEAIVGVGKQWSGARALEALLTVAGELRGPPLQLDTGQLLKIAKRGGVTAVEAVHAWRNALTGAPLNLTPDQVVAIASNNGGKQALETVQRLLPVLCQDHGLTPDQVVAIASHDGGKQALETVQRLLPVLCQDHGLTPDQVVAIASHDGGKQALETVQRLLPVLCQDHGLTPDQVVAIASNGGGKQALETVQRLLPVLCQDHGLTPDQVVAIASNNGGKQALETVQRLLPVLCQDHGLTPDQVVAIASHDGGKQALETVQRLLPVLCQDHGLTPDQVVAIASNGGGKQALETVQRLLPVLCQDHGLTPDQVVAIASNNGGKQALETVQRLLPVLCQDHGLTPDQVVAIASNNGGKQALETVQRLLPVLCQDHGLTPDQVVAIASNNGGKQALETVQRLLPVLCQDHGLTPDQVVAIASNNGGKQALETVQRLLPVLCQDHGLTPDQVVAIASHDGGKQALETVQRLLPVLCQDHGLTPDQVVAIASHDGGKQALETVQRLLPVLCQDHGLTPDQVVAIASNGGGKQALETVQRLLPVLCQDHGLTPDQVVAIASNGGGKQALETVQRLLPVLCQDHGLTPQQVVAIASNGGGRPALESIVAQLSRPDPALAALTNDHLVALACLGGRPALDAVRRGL"}, "TIGIT left V2 TALEN": {"target": "T4, TIGIT left V2 TALEN (synthetic, UniProt Q56830 SEQ:15-719)", "T4 chain": "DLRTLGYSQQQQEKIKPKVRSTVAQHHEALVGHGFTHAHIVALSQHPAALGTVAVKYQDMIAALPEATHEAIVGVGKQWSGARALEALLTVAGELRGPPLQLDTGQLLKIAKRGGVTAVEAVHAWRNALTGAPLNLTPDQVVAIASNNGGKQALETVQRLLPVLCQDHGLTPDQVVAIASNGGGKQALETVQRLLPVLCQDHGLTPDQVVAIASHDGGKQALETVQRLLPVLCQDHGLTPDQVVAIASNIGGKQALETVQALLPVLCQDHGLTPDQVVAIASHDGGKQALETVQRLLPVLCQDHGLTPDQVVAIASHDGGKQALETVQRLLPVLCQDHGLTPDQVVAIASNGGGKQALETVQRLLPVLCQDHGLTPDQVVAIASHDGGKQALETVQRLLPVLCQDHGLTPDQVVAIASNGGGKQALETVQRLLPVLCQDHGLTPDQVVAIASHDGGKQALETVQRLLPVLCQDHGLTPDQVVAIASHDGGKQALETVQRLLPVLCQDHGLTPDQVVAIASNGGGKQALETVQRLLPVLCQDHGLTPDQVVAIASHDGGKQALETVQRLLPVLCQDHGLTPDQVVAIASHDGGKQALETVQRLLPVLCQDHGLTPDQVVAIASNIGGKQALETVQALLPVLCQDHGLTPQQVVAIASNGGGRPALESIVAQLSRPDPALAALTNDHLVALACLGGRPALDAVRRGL"}, "CISH (2) right V2 TALEN": {"target": "T5, CISH (2) right V2 TALEN (synthetic, UniProt Q56830 SEQ:15-719)", "T5 chain": "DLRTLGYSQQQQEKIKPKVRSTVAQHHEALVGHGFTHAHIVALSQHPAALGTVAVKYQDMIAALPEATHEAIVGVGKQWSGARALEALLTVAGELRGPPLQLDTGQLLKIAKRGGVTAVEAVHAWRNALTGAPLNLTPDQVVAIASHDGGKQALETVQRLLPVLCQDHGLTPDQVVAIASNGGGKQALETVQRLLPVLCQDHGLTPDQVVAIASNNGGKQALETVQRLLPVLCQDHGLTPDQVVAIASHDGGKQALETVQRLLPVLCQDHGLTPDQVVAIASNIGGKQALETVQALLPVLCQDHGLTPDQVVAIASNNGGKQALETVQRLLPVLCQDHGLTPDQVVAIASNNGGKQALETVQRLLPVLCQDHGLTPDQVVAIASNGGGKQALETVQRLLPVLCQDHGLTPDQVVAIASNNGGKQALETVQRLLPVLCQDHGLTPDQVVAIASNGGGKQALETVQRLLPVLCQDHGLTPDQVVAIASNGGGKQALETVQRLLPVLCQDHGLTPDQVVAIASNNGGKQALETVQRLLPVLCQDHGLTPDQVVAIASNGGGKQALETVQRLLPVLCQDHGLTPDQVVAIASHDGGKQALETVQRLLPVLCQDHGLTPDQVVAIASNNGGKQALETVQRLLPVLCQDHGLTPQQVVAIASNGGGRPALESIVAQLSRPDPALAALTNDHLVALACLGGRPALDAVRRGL"}, "CISH (2) left V2 TALEN": {"target": "T6, CISH (2) left V2 TALEN (synthetic, UniProt Q56830 SEQ:15-719)", "T6 chain": "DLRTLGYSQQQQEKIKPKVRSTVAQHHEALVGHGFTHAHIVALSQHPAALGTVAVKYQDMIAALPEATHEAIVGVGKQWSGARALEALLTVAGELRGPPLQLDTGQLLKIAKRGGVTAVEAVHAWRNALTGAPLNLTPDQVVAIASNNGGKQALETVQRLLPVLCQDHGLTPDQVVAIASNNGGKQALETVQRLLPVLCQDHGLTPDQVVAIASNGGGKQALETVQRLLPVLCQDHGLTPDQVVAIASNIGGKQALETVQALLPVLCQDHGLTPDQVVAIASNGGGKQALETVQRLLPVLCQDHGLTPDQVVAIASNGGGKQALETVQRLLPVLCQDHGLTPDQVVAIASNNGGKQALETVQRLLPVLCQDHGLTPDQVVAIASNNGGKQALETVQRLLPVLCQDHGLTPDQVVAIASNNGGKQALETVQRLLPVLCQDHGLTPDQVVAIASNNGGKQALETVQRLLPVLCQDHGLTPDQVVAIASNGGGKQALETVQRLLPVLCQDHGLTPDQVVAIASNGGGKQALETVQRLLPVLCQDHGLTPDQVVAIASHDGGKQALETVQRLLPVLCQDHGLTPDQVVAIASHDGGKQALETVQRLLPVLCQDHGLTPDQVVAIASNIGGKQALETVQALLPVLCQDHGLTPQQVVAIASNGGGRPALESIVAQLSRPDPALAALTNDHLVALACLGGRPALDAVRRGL"}, "TIGIT right V2 TALEN": {"target": "T7, TIGIT right V2 TALEN (synthetic, UniProt Q56830 SEQ:15-719)", "T7 chain": "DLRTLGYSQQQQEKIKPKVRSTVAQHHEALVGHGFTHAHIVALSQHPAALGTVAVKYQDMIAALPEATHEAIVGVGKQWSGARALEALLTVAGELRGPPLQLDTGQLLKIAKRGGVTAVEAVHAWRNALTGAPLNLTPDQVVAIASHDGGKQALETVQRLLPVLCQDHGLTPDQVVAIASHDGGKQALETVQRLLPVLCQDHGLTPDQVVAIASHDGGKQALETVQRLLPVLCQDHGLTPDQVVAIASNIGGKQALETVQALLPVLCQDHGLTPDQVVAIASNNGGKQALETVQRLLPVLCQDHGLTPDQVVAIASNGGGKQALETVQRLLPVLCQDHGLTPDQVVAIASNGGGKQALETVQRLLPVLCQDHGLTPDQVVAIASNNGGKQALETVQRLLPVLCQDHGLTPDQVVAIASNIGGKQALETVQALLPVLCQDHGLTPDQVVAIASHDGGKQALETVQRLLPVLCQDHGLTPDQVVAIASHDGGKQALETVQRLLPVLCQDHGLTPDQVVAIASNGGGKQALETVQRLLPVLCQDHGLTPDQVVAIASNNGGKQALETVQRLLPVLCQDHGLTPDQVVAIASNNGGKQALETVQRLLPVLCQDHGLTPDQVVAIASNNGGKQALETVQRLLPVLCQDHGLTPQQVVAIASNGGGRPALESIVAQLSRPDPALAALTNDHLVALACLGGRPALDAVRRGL"}},
  "data": [
    {"binder": "CISH (1) left half-site (dsDNA) DNA 1: TCGAGGAGGTGGCAGAG DNA 2: CTCTGCCACCTCCTCGA", "values": [
      {"measurement": "activity", "setting": "CISH (1) left V2 TALEN", "result": "> 50", "unit": "% indels"}
    ]},
    {"binder": "CISH (1) right half-site (dsDNA) DNA 1: ACAGAGAGTGAGCCAAA DNA 2: TTTGGCTCACTCTCTGT", "values": [
      {"measurement": "activity", "setting": "CISH (1) right V2 TALEN", "result": "> 50", "unit": "% indels"}
    ]},
    {"binder": "CISH (3) left half-site (dsDNA) DNA 1: TGCCTGCTGGGGCCTTC DNA 2: GAAGGCCCCAGCAGGCA", "values": [
      {"measurement": "activity", "setting": "CISH (3) left V2 TALEN", "result": "> 50", "unit": "% indels"}
    ]},
    {"binder": "TIGIT left half-site (dsDNA) DNA 1: TGTCACCTCTCCTCCAC DNA 2: GTGGAGGAGAGGTGACA", "values": [
      {"measurement": "activity", "setting": "TIGIT left V2 TALEN", "result": "> 50", "unit": "% indels"}
    ]},
    {"binder": "CISH (2) right half-site (dsDNA) DNA 1: CCGACAACACCTGCAGA DNA 2: TCTGCAGGTGTTGTCGG", "values": [
      {"measurement": "activity", "setting": "CISH (2) right V2 TALEN", "result": "> 50", "unit": "% indels"}
    ]},
    {"binder": "CISH (2) left half-site (dsDNA) DNA 1: TGGTATTGGGGTTCCAT DNA 2: ATGGAACCCCAATACCA", "values": [
      {"measurement": "activity", "setting": "CISH (2) left V2 TALEN", "result": "> 50", "unit": "% indels"}
    ]},
    {"binder": "TIGIT right half-site (dsDNA) DNA 1: ACCCAGGTCAACTGGGA DNA 2: TCCCAGTTGACCTGGGT", "values": [
      {"measurement": "activity", "setting": "TIGIT right V2 TALEN", "result": "> 50", "unit": "% indels"}
    ]}
  ]
}
